Laboratory results as given in US20240166755A1 (UNIVERSITY OF SOUTHERN CALIFORNIA, published 2024).

B1: CD8SP-4C3-(vL-vH)-Myc-CD28z-T2A-Pac(031615-W05) (scFv)
chain: DIVMTQSPSSLTMSVGQKVTMSCKSSHSLLNSRNQKNYLAWFQQKPGQSPKLLVYFASTRESGVPDRFIGSGSGTDFTLTISNVQAEDLADYFCQQHYTTLPTFGGGTKLEIKGGGGSGGGGSGGGGSQIQLVQSGPDLKKPGETVKISCKASGYTFTNTGMNWVKQAPGKGLKWMGWINTYTGEPTYADDFKGRFTFSLETSASTAYLQINNLKNEDTATYFCTRWGYGSSLYYAMDYWGQGTSVTVSSTREQKLISEEDLKIEVMYPPPYLDNEKSNGTIIHVKGKHLCPSPLFPGPSKPFWVLVVVGGVLACYSLLVTVAFIIFWVRSKRSRLLHSDYMNMTPRRPGPTRKHYQPYAPPRDFAAYRSRVKFSRSADAPAYQQGQNQLYNELNLGRREEYDVLDKRRGRDPEMGGKPRRKNPQEGLYNELQKDKMAEAYSEIGMKGERRRGKGHDGLYQGLSTATKDTYDALHMQALPPRSSGSGEGRGSLLTCGDVEENPG
notes: also called control CAR 4C3
B2: CD8SP-161-(vL-vH)-Myc-CD28z-T2A-PAC(021715-Z07) (scFv)
chain: DDIQMTQSSSSFSVSLGDRVTITCMASEDIYIRLAWYQQKPGNAPRLLISAATSLETGVPSRFSGSGSGKDYTLSITSLQTEDVGTYYCQQYWSSPWTFGGGTKLEINGGGGSGGGGSGGGGSDVQLQESGPGLVKPSQSLSLTCTVTGYSITSDYTWNWIRQFPGNKLEWMGYITYSGSTSYNPSLKSRNSITRDTSKNQFFLQLNSVTTEDTATYYCARLGRRYTMDYWGQGTSVTVSSTREQKLISEEDLKIEVMYPPPYLDNEKSNGTIIHVKGKHLCPSPLFPGPSKPFWVLVVVGGVLACYSLLVTVAFIIFWVRSKRSRLLHSDYMNMTPRRPGPTRKHYQPYAPPRDFAAYRSRVKFSRSADAPAYQQGQNQLYNELNLGRREEYDVLDKRRGRDPEMGGKPRRKNPQEGLYNELQKDKMAEAYSEIGMKGERRRGKGHDGLYQGLSTATKDTYDALHMQALPPRSSGSGEGRGSLLTCGDVEENPG
notes: CAR on cells; entry = whole encoded polyprotein incl; CD8 signal peptide and T2A-PAC
B3: CD8SP-175-(vL-vH)-Myc-CD28z-T2A-PAC(031615-Q04) (scFv)
chain: DQIVLTQSPAIMSASPGEKVTISCSASSSVSYMYWYQQKPGSSPKPWIYRTSNLASGVPARFSGSGSGTSYSLTISNMEAEDAAAYYCQQYHSYPTTFGGGTKLEVKGGGGSGGGGSGGGGSEVQLVESGGGLVQPKGSLKLSCAASGFSFNTYAMNWVRQAPGKGLEWIAHIRSKSNNFATYYADSVKDRFSISRDASENILFLQMNNLKTEDTAMYYCVRQGGDFPMDYWGQGTSVTVSSTREQKLISEEDLKIEVMYPPPYLDNEKSNGTIIHVKGKHLCPSPLFPGPSKPFWVLVVVGGVLACYSLLVTVAFIIFWVRSKRSRLLHSDYMNMTPRRPGPTRKHYQPYAPPRDFAAYRSRVKFSRSADAPAYQQGQNQLYNELNLGRREEYDVLDKRRGRDPEMGGKPRRKNPQEGLYNELQKDKMAEAYSEIGMKGERRRGKGHDGLYQGLSTATKDTYDALHMQALPPRSSGSGEGRGSLLTCGDVEENPG
notes: as for B2
B4: CD8SP-KSHV-4C3-(vL-vH)-Myc-BBz-T2A-PAC(042315-N01) (scFv)
chain: DIVMTQSPSSLTMSVGQKVTMSCKSSHSLLNSRNQKNYLAWFQQKPGQSPKLLVYFASTRESGVPDRFIGSGSGTDFTLTISNVQAEDLADYFCQQHYTTLPTFGGGTKLEIKGGGGSGGGGSGGGGSQIQLVQSGPDLKKPGETVKISCKASGYTFTNTGMNWVKQAPGKGLKWMGWINTYTGEPTYADDFKGRFTFSLETSASTAYLQINNLKNEDTATYFCTRWGYGSSLYYAMDYWGQGTSVTVSSTREQKLISEEDLAKPTTTPAPRPPTPAPTIASQPLSLRPEACRPAAGGAVHTRGLDFACDIYIWAPLAGTCGVLLLSLVITLYCKRGRKKLLYIFKQPFMRPVQTTQEEDGCSCRFPEEEEGGCELRVKFSRSADAPAYQQGQNQLYNELNLGRREEYDVLDKRRGRDPEMGGKPRRKNPQEGLYNELQKDKMAEAYSEIGMKGERRRGKGHDGLYQGLSTATKDTYDALHMQALPPRSSGSGEGRGSLLTCGDVEENPG
notes: also called control CAR 4C3
B5: CD8SP-AB317-(vL-vH)-Myc-CD28z-T2A-PAC(031615-T04) (scFv)
chain: DIVLTQSPASLAVSLGQSVTISCRASESVEYYGTSLMQWYQQKPGQPPKLLIYGASNVESGVPARFSGSGSGTDFSLNIHPVEEDDIAMYFCQQSRKVPWTFGGGTKLEIKGGGGSGGGGSGGGGSEVKLVESGGGLVKPGGSRKLSCAASGFTFSSYTMSWVRQTPAKRLEWVATISSGSSTIYYADTVKGRFTISRDNAKNTLFLQMTSLRSEDTAMYYCARRWFLDCWGQGTTLTVSSTREQKLISEEDLKIEVMYPPPYLDNEKSNGTIIHVKGKHLCPSPLFPGPSKPFWVLVVVGGVLACYSLLVTVAFIIFWVRSKRSRLLHSDYMNMTPRRPGPTRKHYQPYAPPRDFAAYRSRVKFSRSADAPAYQQGQNQLYNELNLGRREEYDVLDKRRGRDPEMGGKPRRKNPQEGLYNELQKDKMAEAYSEIGMKGERRRGKGHDGLYQGLSTATKDTYDALHMQALPPRSSGSGEGRGSLLTCGDVEENPG
notes: as for B2
B6: CD8SP-12E10-(vL-vH)-Myc-CD28z-T2A-PAC(031615-S03) (scFv)
chain: DQVQLQQSGPGLVKPSETLSLTCTVSGDSISSYYWSWIRQPPGKGLEWIGYIYYSGSTNYNPSLKSRVTISVDTSKSQFSLKLSSVTAADTAVYYCARGRYFDVWGRGTMVTSSGGGGSGGGGSGGGGSSSYVLTQPPSVSGSPGQSITISCTGTSSDVGGYNYVSWYQQHPGKAPKLMIYEGSKRPSGVSNRFSGSKSGNTASLTISGLQAEDEADYYCSSYTTRSTRVFGGGTKLTVLGAAATREQKLISEEDLKIEVMYPPPYLDNEKSNGTIIHVKGKHLCPSPLFPGPSKPFWVLVVVGGVLACYSLLVTVAFIIFWVRSKRSRLLHSDYMNMTPRRPGPTRKHYQPYAPPRDFAAYRSRVKFSRSADAPAYQQGQNQLYNELNLGRREEYDVLDKRRGRDPEMGGKPRRKNPQEGLYNELQKDKMAEAYSEIGMKGERRRGKGHDGLYQGLSTATKDTYDALHMQALPPRSSGSGEGRGSLLTCGDVEENPG
notes: as for B2
B7: CD8SP-161-(vL-vH)-GGSG-NLuc-AcV5 (scFv)
scFv: DDIQMTQSSSSFSVSLGDRVTITCMASEDIYIRLAWYQQKPGNAPRLLISAATSLETGVPSRFSGSGSGKDYTLSITSLQTEDVGTYYCQQYWSSPWTFGGGTKLEINGGGGSGGGGSGGGGSDVQLQESGPGLVKPSQSLSLTCTVTGYSITSDYTWNWIRQFPGNKLEWMGYITYSGSTSYNPSLKSRNSITRDTSKNQFFLQLNSVTTEDTATYYCARLGRRYTMDYWGQGTSVTVSSTRGGSGVFTLEDFVGDWRQTAGYNLDQVLEQGGVSSLFQNLGVSVTPIQRIVLSGENGLKIDIHVIIPYEGLSGDQMGQIEKIFKVVYPVDDHHFKVILHYGTLVIDGVTPNMIDYFGRPYEGIAVFDGKKITVTGTLWNGNKIIDERLINPDGSLLFRVTINGVTGWRLCERILASWKDASGWS
notes: the entry includes the CD8 signal peptide

What was measured:
MPL-ECD-GGSG-Nluc-AcV5 = molecular target: T1, MPL-ECD-GGSG-Nluc-AcV5 (human); experiment: NLuc assay: CAR-T cells incubated with MPL-GGSG-NLuc-AcV5 supernatant
T1 construct: the entry includes the native signal peptide; also called MPL-GGSG-NLuc-AcV5; MPL-GGSG-NLuc AcV5
T1 chain: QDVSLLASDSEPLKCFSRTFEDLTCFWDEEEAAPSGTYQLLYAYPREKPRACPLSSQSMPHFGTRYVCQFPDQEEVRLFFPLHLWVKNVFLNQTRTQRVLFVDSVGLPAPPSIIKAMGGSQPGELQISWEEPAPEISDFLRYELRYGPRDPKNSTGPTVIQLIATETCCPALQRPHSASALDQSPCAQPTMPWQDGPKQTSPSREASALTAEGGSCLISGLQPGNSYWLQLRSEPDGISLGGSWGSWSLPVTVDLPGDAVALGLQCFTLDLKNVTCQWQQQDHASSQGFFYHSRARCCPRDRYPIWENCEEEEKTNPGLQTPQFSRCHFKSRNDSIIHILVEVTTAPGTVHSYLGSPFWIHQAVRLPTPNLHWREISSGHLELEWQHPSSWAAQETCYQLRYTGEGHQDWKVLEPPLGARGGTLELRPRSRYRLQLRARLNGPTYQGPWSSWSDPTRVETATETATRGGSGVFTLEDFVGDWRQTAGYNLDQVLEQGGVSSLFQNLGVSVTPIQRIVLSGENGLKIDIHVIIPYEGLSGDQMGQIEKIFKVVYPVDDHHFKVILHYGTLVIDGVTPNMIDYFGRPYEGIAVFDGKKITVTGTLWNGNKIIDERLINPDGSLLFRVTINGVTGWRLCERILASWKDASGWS

[1] = molecular target: T2, FLAG-CD19-ECD-GGSG-NLuc-AcV5 (human); experiment: NLuc assay: CAR-T cells incubated with CD19-GGSG-NLuc-AcV5 supernatant
T2 construct: the entry includes the signal peptide; also called CD19-GGSG-NLuc-AcV5; CD19-GGSG-NLuc fusion protein
T2 chain: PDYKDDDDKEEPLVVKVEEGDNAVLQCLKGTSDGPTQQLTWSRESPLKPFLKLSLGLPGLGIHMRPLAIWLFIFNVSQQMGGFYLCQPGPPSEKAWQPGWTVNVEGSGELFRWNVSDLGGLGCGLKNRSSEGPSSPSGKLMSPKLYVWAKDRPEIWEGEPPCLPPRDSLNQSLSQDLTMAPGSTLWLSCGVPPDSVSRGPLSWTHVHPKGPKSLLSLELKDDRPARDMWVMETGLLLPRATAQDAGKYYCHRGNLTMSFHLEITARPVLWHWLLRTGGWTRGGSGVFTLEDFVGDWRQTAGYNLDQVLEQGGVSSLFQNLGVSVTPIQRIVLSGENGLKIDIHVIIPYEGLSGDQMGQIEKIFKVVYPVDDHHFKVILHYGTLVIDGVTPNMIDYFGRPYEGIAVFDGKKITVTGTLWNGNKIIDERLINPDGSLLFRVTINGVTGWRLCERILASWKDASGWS

[2] = molecular target: T2, FLAG-CD19-ECD-GGSG-NLuc-AcV5; experiment: NLuc assay: CAR on Jurkat-NFAT-Luc cells incubated with FLAG-CD19-ECD-GGSG-NLuc-AcV5 supernatant
[3] = molecular target: T3, human MPL (thrombopoietin receptor) (human, UniProt P40238 26-635); experiment: NLuc luminescence of scFv-NLuc fusion supernatant bound to washed cells
T3 construct: whole, on cells; also called c-MPL; c-Mpl
T3 sequence (looked up): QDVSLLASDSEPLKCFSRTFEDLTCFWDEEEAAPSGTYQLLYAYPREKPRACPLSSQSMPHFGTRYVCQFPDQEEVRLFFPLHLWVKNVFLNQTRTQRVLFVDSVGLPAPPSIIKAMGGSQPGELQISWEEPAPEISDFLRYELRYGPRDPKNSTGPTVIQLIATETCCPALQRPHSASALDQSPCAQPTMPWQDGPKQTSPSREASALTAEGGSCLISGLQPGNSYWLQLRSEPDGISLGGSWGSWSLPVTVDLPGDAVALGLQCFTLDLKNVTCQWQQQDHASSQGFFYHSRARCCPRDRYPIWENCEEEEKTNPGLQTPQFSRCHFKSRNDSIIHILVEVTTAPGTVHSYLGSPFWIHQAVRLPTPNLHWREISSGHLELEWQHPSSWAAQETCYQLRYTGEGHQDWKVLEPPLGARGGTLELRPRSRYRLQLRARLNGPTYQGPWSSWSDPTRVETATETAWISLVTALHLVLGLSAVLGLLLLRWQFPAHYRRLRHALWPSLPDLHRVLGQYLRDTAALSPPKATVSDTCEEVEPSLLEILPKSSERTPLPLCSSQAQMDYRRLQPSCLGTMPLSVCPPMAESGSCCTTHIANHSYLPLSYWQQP

| Binder | binding result [1] | also measured |
| --- | --- | --- |
| B1 |  | binding result (MPL-ECD-GGSG-Nluc-AcV5): no binding |
| B2 | no binding |  |
| B3 | no binding |  |
| B4 |  | binding result [2]: no binding |
| B5 | no binding |  |
| B6 | no binding |  |
| B7 |  | binding result [3]: binds |
